# Legend:
# Test in all cases: cell-based or functional assay
# [1] = biological target: HIV-1 MGRM-A-010 Env (pseudovirus) (HIV-1)
# [2] = biological target: HIV-1 JRCSF Env (pseudovirus) (HIV-1) (UniProt P20871)
# [3] = biological target: HIV-1 92UG024 Env (pseudovirus) (HIV-1)
# [4] = biological target: aMLV envelope (negative control pseudovirus)
# [5] = biological target: HIV-1 MGRM-D-018 Env (pseudovirus) (HIV-1)
# [6] = biological target: HIV-1 envelope glycoprotein (Env) of isolate MGRM-C-028 (HIV-1)
# [7] = biological target: HIV-1 envelope glycoprotein (Env) of isolate APV6 (HIV-1)
# [8] = biological target: HIV-1 envelope glycoprotein (Env) of isolate MGRM-A-010 (HIV-1)
# [9] = biological target: HIV-1 envelope glycoprotein (Env) of isolate CMU02 (HIV-1)
# [10] = biological target: HIV-1 MGRM-C-028 envelope glycoprotein (Env) (HIV-1)
# [11] = biological target: HIV-1 MGRM-D-018 envelope glycoprotein (Env) (HIV-1)
# [12] = biological target: HIV-1 MGRM-C-026 envelope glycoprotein (Env) (HIV-1)
# [13] = biological target: HIV-1 MGRM-C-026 envelope glycoprotein (Env) on virus (HIV-1, clade C, isolate MGRM-C-026)
# [14] = biological target: HIV-1 MGRM-AG-005 envelope glycoprotein (Env) on virus (HIV-1, clade AG, isolate MGRM-AG-005)
# [15] = biological target: HIV-1 MGRM-C-028 envelope glycoprotein (Env) on virus (HIV-1, clade C, isolate MGRM-C-028)
# [16] = biological target: HIV-1 APV17 envelope glycoprotein (Env) on virus (HIV-1, clade B, isolate APV17)
# [17] = biological target: HIV-1 92BR020 envelope glycoprotein (Env) on pseudovirus (HIV-1)
# [18] = biological target: HIV-1 Env of pseudovirus CAP45 (HIV-1)
# [19] = biological target: HIV-1 Env of pseudovirus Du172 (HIV-1)
# [20] = biological target: HIV-1 Env of isolate 93IN905 (clade C) (HIV-1)
# [21] = biological target: HIV-1 Env of isolate MGRM-C-028 (clade C) (HIV-1)
# [22] = biological target: HIV-1 Env of isolate 92RW020 (clade A) (HIV-1)
# [23] = biological target: HIV-1 envelope glycoprotein (Env) of isolate MG RM-A-004 (HIV-1)
# [24] = biological target: HIV-1 Env of isolate MGRM-F1-008 (subtype F) (HIV-1)
# [25] = biological target: HIV-1 Env of isolate MG RM-D-022 (subtype D) (HIV-1)
# [26] = biological target: HIV-1 Env of isolate MG RM-C-020 (HIV-1)
# [27] = biological target: HIV-1 Env of isolate MG RM-D-018 (subtype D) (HIV-1)
# [28] = biological target: HIV-1 92UG005 envelope glycoprotein (Env), clade D pseudovirus (HIV-1)
# [29] = biological target: HIV-1 92UG024 envelope glycoprotein (Env), clade D pseudovirus (HIV-1)
# [30] = biological target: HIV-1 JRFL envelope glycoprotein (Env), clade B pseudovirus (HIV-1)
# Sequence of 5329_C19 (PGT-136) (antibody) (VH): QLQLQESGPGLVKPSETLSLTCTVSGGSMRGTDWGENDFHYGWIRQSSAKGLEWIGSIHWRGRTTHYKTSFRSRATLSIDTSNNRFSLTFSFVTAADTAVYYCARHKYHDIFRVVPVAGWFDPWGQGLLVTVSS
# Sequence of 5329_C19 (PGT-136) (antibody) (VL): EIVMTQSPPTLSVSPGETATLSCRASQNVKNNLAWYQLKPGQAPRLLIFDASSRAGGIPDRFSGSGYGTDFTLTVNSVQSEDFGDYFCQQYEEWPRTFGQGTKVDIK
# Sequence of 1443_C16 (PG16) (TCN-116) (antibody) (VH): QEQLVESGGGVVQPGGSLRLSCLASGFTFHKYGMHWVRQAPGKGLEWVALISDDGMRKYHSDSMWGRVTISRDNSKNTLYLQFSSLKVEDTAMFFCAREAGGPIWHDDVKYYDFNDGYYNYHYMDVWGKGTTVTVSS
# Sequence of 1443_C16 (PG16) (TCN-116) (antibody) (VL): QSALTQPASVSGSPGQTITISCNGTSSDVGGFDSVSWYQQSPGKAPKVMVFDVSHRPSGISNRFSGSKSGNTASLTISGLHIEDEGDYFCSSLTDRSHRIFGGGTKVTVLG
substance,measurement,setting,value
5123_A06 (PGT-125) (antibody),"Neutralization by PGT-125, IC50",[1],0.0055 µg/mL
same,"Neutralization by PGT-125, IC80",[1],0.024 µg/mL
same,"Neutralization by PGT-125, IC90",[1],0.0575 µg/mL
same,"Neutralization by PGT-125, IC95",[1],0.131 µg/mL
same,"Neutralization by PGT-125, IC50",[2],0.006 µg/mL
same,"Neutralization by PGT-125, IC80",[2],0.0196 µg/mL
same,"Neutralization by PGT-125, IC90",[2],0.0392 µg/mL
same,"Neutralization by PGT-125, IC95",[2],0.0741 µg/mL
same,"Neutralization by PGT-125, IC50",[3],> 10 µg/mL
same,"Neutralization by PGT-125, IC80",[3],> 10 µg/mL
same,"Neutralization by PGT-125, IC90",[3],> 10 µg/mL
same,"Neutralization by PGT-125, IC95",[3],> 10 µg/mL
same,"Neutralization by PGT-125, IC50",[4],> 10 µg/mL
same,"Neutralization by PGT-125, IC80",[4],> 10 µg/mL
same,"Neutralization by PGT-125, IC90",[4],> 10 µg/mL
same,"Neutralization by PGT-125, IC95",[4],> 10 µg/mL
same,"Neutralization by PGT-125, IC50",[5],0.0382 µg/mL
same,"Neutralization by PGT-125, IC80",[5],0.144 µg/mL
same,"Neutralization by PGT-125, IC90",[5],0.339 µg/mL
same,"Neutralization by PGT-125, IC95",[5],0.892 µg/mL
5141_B17 (PGT-126) (antibody),Neutralization IC80,[6],2.62 µg/mL
same,Neutralization IC90,[6],> 10 µg/mL
same,Neutralization IC95,[6],> 10 µg/mL
same,neutralization IC50,[6],0.283 µg/mL
same,Neutralization IC80,[7],0.0681 µg/mL
same,Neutralization IC90,[7],0.123 µg/mL
same,Neutralization IC95,[7],0.213 µg/mL
same,neutralization IC50,[7],0.0249 µg/mL
same,Neutralization IC80,[8],0.0137 µg/mL
same,Neutralization IC90,[8],0.0316 µg/mL
same,Neutralization IC95,[8],0.0687 µg/mL
same,neutralization IC50,[8],0.0033 µg/mL
same,Neutralization IC80,[9],> 10 µg/mL
same,Neutralization IC90,[9],> 10 µg/mL
same,Neutralization IC95,[9],> 10 µg/mL
same,neutralization IC50,[9],> 10 µg/mL
5329_C19 (PGT-136) (antibody),Neutralization IC80,[10],> 10 µg/mL
same,Neutralization IC90,[10],> 10 µg/mL
same,Neutralization IC95,[10],> 10 µg/mL
same,neutralization IC50,[10],> 10 µg/mL
same,Neutralization IC80,[11],> 10 µg/mL
same,Neutralization IC90,[11],> 10 µg/mL
same,Neutralization IC95,[11],> 10 µg/mL
same,neutralization IC50,[11],> 10 µg/mL
same,Neutralization IC80,[12],0.0285 µg/mL
same,Neutralization IC90,[12],0.0687 µg/mL
same,Neutralization IC95,[12],0.159 µg/mL
same,neutralization IC50,[12],0.0065 µg/mL
4877_D15 (PGT-122) (antibody),Neutralization IC80,[13],0.037 µg/mL
same,Neutralization IC90,[13],0.0849 µg/mL
same,Neutralization IC95,[13],0.181 µg/mL
same,neutralization IC50,[13],0.0089 µg/mL
same,Neutralization IC80,[14],> 10 µg/mL
same,Neutralization IC90,[14],> 10 µg/mL
same,Neutralization IC95,[14],> 10 µg/mL
same,neutralization IC50,[14],> 10 µg/mL
same,Neutralization IC80,[15],> 10 µg/mL
same,Neutralization IC90,[15],> 10 µg/mL
same,Neutralization IC95,[15],> 10 µg/mL
same,neutralization IC50,[15],2.06 µg/mL
same,Neutralization IC80,[16],1.76 µg/mL
same,Neutralization IC90,[16],3.58 µg/mL
same,Neutralization IC95,[16],6.92 µg/mL
same,neutralization IC50,[16],0.522 µg/mL
5343_B08 (PGT-135) (antibody),Neutralization IC80,[17],0.253 µg/mL
same,Neutralization IC90,[17],0.43 µg/mL
same,Neutralization IC95,[17],0.72 µg/mL
same,neutralization IC50,[17],0.104 µg/mL
1443_C16 (PG16) (TCN-116) (antibody),"IC50, pseudovirus neutralization (TZM-bl assay)",[18],< 0.01 µg/mL
same,"IC50, pseudovirus neutralization (TZM-bl assay)",[19],< 0.01 µg/mL
1496_C09 (PG9) (TCN-109) (antibody),Neutralization IC80,[20],0.308 µg/mL
same,Neutralization IC90,[20],0.981 µg/mL
same,Neutralization IC95,[20],3.31 µg/mL
same,neutralization IC50,[20],0.048 µg/mL
same,Neutralization IC80,[21],0.645 µg/mL
same,Neutralization IC90,[21],1.65 µg/mL
same,Neutralization IC95,[21],3.71 µg/mL
same,neutralization IC50,[21],0.121 µg/mL
same,Neutralization IC80,[22],1.04 µg/mL
same,Neutralization IC90,[22],3.4 µg/mL
same,neutralization IC50,[22],0.161 µg/mL
PGV04 (antibody),IC50,[23],0.175 µg/mL
same,"IC50 (µg/mL), pseudovirus neutralization",[24],1.03 µg/mL
same,"IC50 (µg/mL), pseudovirus neutralization",[25],> 50 µg/mL
same,"IC50 (µg/mL), pseudovirus neutralization",[26],0.112 µg/mL
same,"IC50 (µg/mL), pseudovirus neutralization",[27],17.5 µg/mL
4858_P08 (PGT-123) (antibody),"IC50, pseudovirus neutralization",[28],2.49 µg/mL
same,IC80 (pseudovirus neutralization),[28],> 10 µg/mL
same,IC90 (pseudovirus neutralization),[28],> 10 µg/mL
same,IC95 (pseudovirus neutralization),[28],> 10 µg/mL
same,"IC50, pseudovirus neutralization",[29],> 10 µg/mL
same,IC80 (pseudovirus neutralization),[29],> 10 µg/mL
same,IC90 (pseudovirus neutralization),[29],> 10 µg/mL
same,IC95 (pseudovirus neutralization),[29],> 10 µg/mL
same,"IC50, pseudovirus neutralization",[30],0.0283 µg/mL
same,IC80 (pseudovirus neutralization),[30],0.0904 µg/mL
same,IC90 (pseudovirus neutralization),[30],0.178 µg/mL
same,IC95 (pseudovirus neutralization),[30],0.332 µg/mL
